Target: VEGFR2 (vascular endothelial growth factor receptor 2), expressed from plasmid in HEK293 cells, P35968
Sequence (P35968 20-1356): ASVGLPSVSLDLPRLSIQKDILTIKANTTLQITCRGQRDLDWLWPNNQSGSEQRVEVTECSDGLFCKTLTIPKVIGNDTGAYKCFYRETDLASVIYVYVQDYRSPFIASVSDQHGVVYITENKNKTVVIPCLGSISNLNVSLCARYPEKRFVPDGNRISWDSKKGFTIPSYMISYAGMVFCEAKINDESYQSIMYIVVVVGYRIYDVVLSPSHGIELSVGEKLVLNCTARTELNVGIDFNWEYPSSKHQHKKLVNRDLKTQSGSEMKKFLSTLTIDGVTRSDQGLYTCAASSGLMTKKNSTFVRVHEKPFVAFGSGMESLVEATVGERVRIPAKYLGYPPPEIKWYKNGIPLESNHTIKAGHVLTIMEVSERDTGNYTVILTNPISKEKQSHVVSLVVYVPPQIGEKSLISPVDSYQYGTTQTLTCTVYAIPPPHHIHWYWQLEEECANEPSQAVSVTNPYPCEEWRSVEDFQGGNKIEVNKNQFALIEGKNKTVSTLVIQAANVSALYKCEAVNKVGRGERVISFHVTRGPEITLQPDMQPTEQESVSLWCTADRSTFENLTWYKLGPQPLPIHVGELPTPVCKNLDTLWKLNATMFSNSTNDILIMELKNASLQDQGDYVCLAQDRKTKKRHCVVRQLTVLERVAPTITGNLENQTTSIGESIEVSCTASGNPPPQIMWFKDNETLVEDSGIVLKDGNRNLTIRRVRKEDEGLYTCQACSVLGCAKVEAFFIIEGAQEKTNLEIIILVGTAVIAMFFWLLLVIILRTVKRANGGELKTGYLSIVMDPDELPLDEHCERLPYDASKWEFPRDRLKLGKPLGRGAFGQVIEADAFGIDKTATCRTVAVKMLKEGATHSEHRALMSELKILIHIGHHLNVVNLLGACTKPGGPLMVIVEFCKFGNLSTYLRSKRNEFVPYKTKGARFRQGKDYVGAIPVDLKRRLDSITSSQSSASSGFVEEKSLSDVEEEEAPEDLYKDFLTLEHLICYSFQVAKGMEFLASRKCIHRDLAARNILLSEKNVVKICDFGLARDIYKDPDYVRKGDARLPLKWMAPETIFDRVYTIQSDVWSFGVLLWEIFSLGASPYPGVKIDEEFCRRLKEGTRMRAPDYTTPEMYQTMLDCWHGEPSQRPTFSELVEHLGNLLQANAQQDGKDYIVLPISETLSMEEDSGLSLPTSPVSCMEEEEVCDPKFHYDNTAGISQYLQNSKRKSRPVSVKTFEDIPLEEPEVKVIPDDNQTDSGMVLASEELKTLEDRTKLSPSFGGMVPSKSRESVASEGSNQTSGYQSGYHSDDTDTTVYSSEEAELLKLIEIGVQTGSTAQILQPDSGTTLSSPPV

B1: recombinant, purified TCPTP (T-cell protein tyrosine phosphatase) (protein)
chain: MPTTIEREFEELDTQRRWQPLYLEIRNESHDYPHRVAKFPENRNRNRYRDVSPYDHSRVKLQNAENDYINASLVDIEEAQRSYILTQGPLPNTCCHFWLMVWQQKTKAVVMLNRIVEKESVKCAQYWPTDDQEMLFKETGFSVKLLSEDVKSYYTVHLLQLENINSGETRTISHFHYTTWPDFGVPESPASFLNFLFKVRESGSLNPDHGPAVIHCSAGIGRSGTFSLVDTCLVLMEKGDDINIKQVLLNMRKYRMGLIQTPDQLRFSYMAIIEGAKCIKGDSSIQKRWKELSKEDLSPAFDHSPNKIMTEKYNGNRIGLEEEKLTGDRCTGLSSKMQDTMEENSESALRKRIREDRKATTAQKVQQMKQRLNENERKRKRPRLTDT
With B1 the “in vitro dephosphorylation of VEGFR2 tyrosines 996, 1175 and 1214” value was “TCPTP showed a striking specificity to two tyrosine residues studied (Y1214 and Y996), while tyrosine 1175 was not a TCPTP target” and the “in vitro dephosphorylation of isolated VEGFR2 (immunoblot with phospho-specific VEGFR2 antibodies)” value was “purified, recombinant TCPTP was able to dephosphorylate isolated VEGFR2 in vitro”.

From patent US20100160228
